{"source": "the supplement of paper PMC11316812", "key": {"MCF7": {"system": "MCF7", "experiment": "percentage of EdU-negative (G0-arrested) nuclei per well, 72 h; higher = more G0 arrest", "details": "reference: sequence is the full UniProt precursor, the tested protein was the secreted form or ectodomain"}, "hTERT-HMEC": {"system": "hTERT-HMEC", "experiment": "percentage of EdU-negative (G0-arrested) nuclei per well, 72 h; higher = more G0 arrest", "details": "reference: sequence is the full UniProt precursor, the tested protein was the secreted form or ectodomain"}, "[1]": {"details": "protein concentration 0.016015 µM"}, "[2]": {"details": "protein concentration 0.16015 µM"}, "[3]": {"details": "protein concentration 0.020665 µM"}, "[4]": {"details": "protein concentration 0.20665 µM"}, "[5]": {"details": "protein concentration 0.0357143 µM"}, "[6]": {"details": "protein concentration 0.357143 µM"}, "[7]": {"details": "protein concentration 0.0225 µM"}, "[8]": {"details": "protein concentration 0.03125 µM"}, "[9]": {"details": "protein concentration 0.3125 µM"}, "[10]": {"details": "protein concentration 0.00625 µM"}, "[11]": {"details": "protein concentration 0.0625 µM"}, "[12]": {"details": "protein concentration 0.00575 µM"}, "[13]": {"details": "protein concentration 0.0575 µM"}}, "note": "± gives the standard deviation of the averaged measurements.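 Also: secreted proteins added to cultured cells, EdU pulse at the end, nuclei found by Hoechst imaging, EdU status from nuclear versus surrounding ring intensity ratio, PBS as neutral control.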", "data": [{"sequence": "MKVLLRLICFIALLISSLEADKCKEREEKIILVSSANEIDVRPCPLNPNEHKGTITWYKDDSKTPVSTEQASRIHQHKEKLWFVPAKVEDSGHYYCVVRNSSYCLRIKISAKFVENEPNLCYNAQAIFKQKLPVAGDGGLVCPYMEFFKNENNELPKLQWYKDCKPLLLDNIHFSGVKDRLIVMNVAEKHRGNYTCHASYTYLGKQYPITRVIEFITLEENKPTRPVIVSPANETMEVDLGSQIQLICNVTGQLSDIAYWKWNGSVIDEDDPVLGEDYYSVENPANKRRSTLITVLNISEIESRFYKHPFTCFAKNTHGIDAAYIQLIYPVTNFQKHMIGICVTLTVIIVCSVFIYKIFKIDIVLWYRDSCYDFLPIKASDGKTYDAYILYPKTVGEGSTSDCDIFVFKVLPEVLEKQCGYKLFIYGRDDYVGEDIVEVINENVKKSRRLIIILVRETSGFSWLGGSSEEQIAMYNALVQDGIKVVLLELEKIQDYEKMPESIKFIKQKHGAIRWSGDFTQGPQSAKTRFWKNVRYHMPVQRRSPSSKHQLLSPATKEKLQREAHVPLG", "values": [{"measurement": "percentage of EdU-negative", "setting": "MCF7; [1]", "value": "25.8 ± 1.6", "unit": "%"}, {"measurement": "percentage of EdU-negative", "setting": "MCF7; [2]", "value": "26.2 ± 0.51", "unit": "%"}, {"measurement": "percentage of EdU-negative", "setting": "hTERT-HMEC; [1]", "value": "4.76 ± 0.26", "unit": "%"}, {"measurement": "percentage of EdU-negative", "setting": "hTERT-HMEC; [2]", "value": "5.92 ± 0.43", "unit": "%"}]}, {"sequence": "MKVSEAALSLLVLILIITSASRSQPKVPEWVNTPSTCCLKYYEKVLPRRLVVGYRKALNCHLPAIIFVTKRNREVCTNPNDDWVQEYIKDPNLPLLPTRNLSTVKIITAKNGQPQLLNSQ", "values": [{"measurement": "percentage of EdU-negative", "setting": "MCF7; [3]", "value": "22.9 ± 1.1", "unit": "%"}, {"measurement": "percentage of EdU-negative", "setting": "MCF7; [4]", "value": "25.9 ± 2.8", "unit": "%"}, {"measurement": "percentage of EdU-negative", "setting": "hTERT-HMEC; [3]", "value": "5.16 ± 1.1", "unit": "%"}, {"measurement": "percentage of EdU-negative", "setting": "hTERT-HMEC; [4]", "value": "5.51 ± 0.14", "unit": "%"}]}, {"sequence": "MKVSVAALSCLMLVAVLGSQAQFTNDAETELMMSKLPLENPVVLNSFHFAADCCTSYISQSIPCSLMKSYFETSSECSKPGVIFLTKKGRQVCAKPSGPGVQDCMKKLKPYSI", "values": [{"measurement": "percentage of EdU-negative", "setting": "MCF7; [5]", "value": "24.9 ± 0.52", "unit": "%"}, {"measurement": "percentage of EdU-negative", "setting": "MCF7; [6]", "value": "25.2 ± 0.81", "unit": "%"}, {"measurement": "percentage of EdU-negative", "setting": "hTERT-HMEC; [5]", "value": "4.77 ± 0.69", "unit": "%"}, {"measurement": "percentage of EdU-negative", "setting": "hTERT-HMEC; [6]", "value": "4.52 ± 1.2", "unit": "%"}]}, {"sequence": "MKVSVAALSCLMLVTALGSQARVTKDAETEFMMSKLPLENPVLLDRFHATSADCCISYTPRSIPCSLLESYFETNSECSKPGVIFLTKKGRRFCANPSDKQVQVCMRMLKLDTRIKTRKN", "values": [{"measurement": "percentage of EdU-negative", "setting": "MCF7; [7]", "value": "22.9 ± 1.3", "unit": "%"}, {"measurement": "percentage of EdU-negative", "setting": "MCF7; protein concentration 0.225 µM", "value": "24.7 ± 1.1", "unit": "%"}, {"measurement": "percentage of EdU-negative", "setting": "hTERT-HMEC; [7]", "value": "4.81 ± 0.43", "unit": "%"}, {"measurement": "percentage of EdU-negative", "setting": "hTERT-HMEC; protein concentration 0.225 µM", "value": "5.12 ± 0.82", "unit": "%"}]}, {"sequence": "MKVTGIFLLSALALLSLSGNTGADSLGREAKCYNELNGCTKIYDPVCGTDGNTYPNECVLCFENRKRQTSILIQKSGPC", "values": [{"measurement": "percentage of EdU-negative", "setting": "MCF7; [7]", "value": "24 ± 0.32", "unit": "%"}, {"measurement": "percentage of EdU-negative", "setting": "MCF7; protein concentration 0.225 µM", "value": "25.6 ± 0.77", "unit": "%"}, {"measurement": "percentage of EdU-negative", "setting": "hTERT-HMEC; [7]", "value": "5.21 ± 1.1", "unit": "%"}, {"measurement": "percentage of EdU-negative", "setting": "hTERT-HMEC; protein concentration 0.225 µM", "value": "4.61 ± 0.16", "unit": "%"}]}, {"sequence": "MKVVPSLLLSVLLAQVWLVPGLAPSPQSPETPAPQNQTSRVVQAPKEEEEDEQEASEEKASEEEKAWLMASRQQLAKETSNFGFSLLRKISMRHDGNMVFSPFGMSLAMTGLMLGATGPTETQIKRGLHLQALKPTKPGLLPSLFKGLRETLSRNLELGLTQGSFAFIHKDFDVKETFFNLSKRYFDTECVPMNFRNASQAKRLMNHYINKETRGKIPKLFDEINPETKLILVDYILFKGKWLTPFDPVFTEVDTFHLDKYKTIKVPMMYGAGKFASTFDKNFRCHVLKLPYQGNATMLVVLMEKMGDHLALEDYLTTDLVETWLRNMKTRNMEVFFPKFKLDQKYEMHELLRQMGIRRIFSPFADLSELSATGRNLQVSRVLQRTVIEVDERGTEAVAGILSEITAYSMPPVIKVDRPFHFMIYEETSGMLLFLGRVVNPTLL [Q9UK55]", "values": [{"measurement": "percentage of EdU-negative", "setting": "MCF7; [8]", "value": "24.6 ± 0.79", "unit": "%"}, {"measurement": "percentage of EdU-negative", "setting": "MCF7; [9]", "value": "29.5 ± 0.31", "unit": "%"}, {"measurement": "percentage of EdU-negative", "setting": "hTERT-HMEC; [8]", "value": "4.46 ± 0.39", "unit": "%"}, {"measurement": "percentage of EdU-negative", "setting": "hTERT-HMEC; [9]", "value": "11.5 ± 0.79", "unit": "%"}]}, {"sequence": "MKVWLLLGLLLVHEALEDVTGQHLPKNKRPKEPGENRIKPTNKKVKPKIPKMKDRDSANSAPKTQSIMMQVLDKGRFQKPAATLSLLAGQTVELRCKGSRIGWSYPAYLDTFKDSRLSVKQNERYGQLTLVNSTSADTGEFSCWVQLCSGYICRKDEAKTGSTYIFFTEKGELFVPSPSYFDVVYLNPDRQAVVPCRVTVLSAKVTLHREFPAKEIPANGTDIVYDMKRGFVYLQPHSEHQGVVYCRAEAGGRSQISVKYQLLYVAVPSGPPSTTILASSNKVKSGDDISVLCTVLGEPDVEVEFTWIFPGQKDERPVTIQDTWRLIHRGLGHTTRISQSVITVEDFETIDAGYYICTAQNLQGQTTVATTVEFS", "values": [{"measurement": "percentage of EdU-negative", "setting": "MCF7; [10]", "value": "27.9 ± 0.57", "unit": "%"}, {"measurement": "percentage of EdU-negative", "setting": "MCF7; [11]", "value": "29.4 ± 1", "unit": "%"}, {"measurement": "percentage of EdU-negative", "setting": "hTERT-HMEC; [10]", "value": "4.49 ± 0.2", "unit": "%"}, {"measurement": "percentage of EdU-negative", "setting": "hTERT-HMEC; [11]", "value": "5.36 ± 0.45", "unit": "%"}]}, {"sequence": "MKWLLLLGLVALSECIMYKVPLIRKKSLRRTLSERGLLKDFLKKHNLNPARKYFPQWEAPTLVDEQPLENYLDMEYFGTIGIGTPAQDFTVVFDTGSSNLWVPSVYCSSLACTNHNRFNPEDSSTYQSTSETVSITYGTGSMTGILGYDTVQVGGISDTNQIFGLSETEPGSFLYYAPFDGILGLAYPSISSSGATPVFDNIWNQGLVSQDLFSVYLSADDQSGSVVIFGGIDSSYYTGSLNWVPVTVEGYWQITVDSITMNGEAIACAEGCQAIVDTGTSLLTGPTSPIANIQSDIGASENSDGDMVVSCSAISSLPDIVFTINGVQYPVPPSAYILQSEGSCISGFQGMNLPTESGELWILGDVFIRQYFTVFDRANNQVGLAPVA [P0DJD7]", "values": [{"measurement": "percentage of EdU-negative", "setting": "MCF7; [12]", "value": "25.5 ± 2.2", "unit": "%"}, {"measurement": "percentage of EdU-negative", "setting": "MCF7; [13]", "value": "24.6 ± 1.6", "unit": "%"}, {"measurement": "percentage of EdU-negative", "setting": "hTERT-HMEC; [12]", "value": "4.41 ± 0.41", "unit": "%"}, {"measurement": "percentage of EdU-negative", "setting": "hTERT-HMEC; [13]", "value": "5.85 ± 0.73", "unit": "%"}]}]}
